Read-outs that look alike come from different tables or passages of the source. Where no end group is shown, it is not given here. [ ]: non-standard residue; d: D form. The star is where a group is joined. Biotin = O=C1N[C@H]2[C@H](CS[C@H]2CCCCC(=O)*)N1; βAla = NCCC(=O)O; Cam = NC(=O)C*
B1: Click dimer (N-ter) (peptide)
peptide 1: KAWLAYPDSVPYRPK
peptide 2: XGAWLAYPDSVPYRPK
modifications: not fully specified; propargylglycine (Pra) at position 1, joined by a click linkage to KN3 of the other chain; C-terminal amide; azido-lysine (KN3) at position 1, joined by a click linkage to Pra of the other chain; C-terminal amide
B2: βA-WLA-YGSGC dimer (C-ter) (peptide)
peptide: [βAla]WLAYPDSVPYGSGC
modifications: also: homodimer, disulfide at 15, other end not in the chain
notes: C-terminally disulfide-linked homodimer made from monomer (9*); also called dimer (1); dimeric peptide (1)
B3: CGA-WLA-YR dimer (N-ter) (peptide)
peptide: CGAWLAYPDSVPYR
modifications: also: homodimer: N-terminal Cys of two chains joined by disulfide
notes: N-terminally disulfide-linked homodimer made from monomer (15*); also called dimer (4)
B4: CcamGA-WLA-YRPK-bio (peptide)
peptide: C(Cam)GAWLAYPDSVPYRPK(Biotin)
notes: also called monomer (10); monomeric peptide (10)
B5: Lys-linked dimer (C-ter) (peptide)
peptide 1: [βAla]WLAYPDSVPYRPKK
peptide 2: [βAla]WLAYPDSVPYRPK
modifications: also: bond at chain A 15 to a chain's C-terminus
B6: YSA-GSGSK-bio (peptide)
peptide: YSAYPDSVPMMSGSGSK(Biotin)
notes: Previously identified monomer, included for comparison; also called monomer (2*); 2*
B7: βA-WLA-YRPKC dimer (C-ter) (peptide)
peptide: [βAla]WLAYPDSVPYRPKC
modifications: also: homodimer, disulfide at 15, other end not in the chain
notes: C-terminally disulfide-linked homodimer made from monomer (19*); also called dimer (2); dimeric peptide (2)
B8: L223R/L254R/V255R (receptor)
chain: AQGKEVVLLDFAAAGGELGWLTHPYGKGWDLMQNIMNDMPIYMYSVCNVMSGDQDNWLRTNWVYRGEAERIFIELKFTVRDCNSFPGGASSCKETFNLYYAESDLDYGTNFQKRLFTKIDTIAPDEITVSSDFEARHVKLNVEERSVGPLTRKGFYLAFQDIGACVALLSVRVYYKKCPELLQGLAHFPETIAGSDAPSRATVAGTCVDHAVVPPGGEEPRMHCAVDGEWRRPIGQCLCQAGYEKVEDACQACSPGFFKFEASESPCLECPEHTLPSPEGATSCECEEGFFRAPQDPASMPCTRPPSAPHYLTAVGMGAKVELRWTPPQDSGGREDIVYSVTCEQCWPESGECGPCEASVRYSEPPHGLTRTSVTVSDLEPHMNYTFTVEARNGVSGLVTSRSFRTASVSINQTEPPKVRLEGRSTTSLSVSWSIPPPQQSRVWKYEVTYRKKGDSNSYNVRRTEGFSVTLDDLAPDTTYLVQVQALTQEGQGAGSKVHEFQTLSPEGSGNLAVIGGVAVGVVLLLVLAGVGFFIHRRRKNQRARQSPEDVYFSKSEQLKPLKTYVDPHTYEDPNQAVLKFTTEIHPSCVTRQKVIGAGEFGEVYKGMLKTSSGKKEVPVAIKTLKAGYTEKQRVDFLGEAGIMGQFSHHNIIRLEGVISKYKPMMIITEYMENGALDKFLREKDGEFSVLQLVGMLRGIAAGMKYLANMNYVHRDLAARNILVNSNLVCKVSDFGLSRVLEDDPEATYTTSGGKIPIRWTAPEAISYRKFTSASDVWSFGIVMWEVMTYGERPYWELSNHEVMKAINDGFRLPTPMDCPSAIYQLMMQCWQQERARRPKFADIVSILDKLIRAPDSLKTLADFDPRVSIRLPSTSGSEGVPFRTVSEWLESIKMQQYTEHFMAAGYTAIEKVVQMTNDDIKRIGVRLPGHQKRIAYSLLGLKDQVNTVGIPI
modifications: Carries mTURQ (donor) or EYFP (acceptor) at the C-terminus. The tag is not in the letters.
notes: mutant of m18 used in the FRET experiments; also called EphA2 L223R/L254R/V255R; clustering interface mutant; not shown: C-terminal fluorescent protein (mTURQ or EYFP) and any linker to it
B9: CGA-WLA-YRPKam dimer (N-ter) (peptide)
peptide: CGAWLAYPDSVPYRPK-NH2
modifications: also: homodimer: N-terminal Cys of two chains joined by disulfide
B10: linear dimer (head-to-tail) (peptide)
peptide: [βAla]WLAYPDSVPYRPKGGAWLAYPDSVPYRPK-NH2
modifications: N-terminus assumed
SMILES: CC(C)C[C@H](NC(=O)[C@H](Cc1c[nH]c2ccccc12)NC(=O)CCN)C(=O)N[C@@H](C)C(=O)N[C@@H](Cc1ccc(O)cc1)C(=O)N1CCC[C@H]1C(=O)N[C@@H](CC(=O)O)C(=O)N[C@@H](CO)C(=O)N[C@H](C(=O)N1CCC[C@H]1C(=O)N[C@@H](Cc1ccc(O)cc1)C(=O)N[C@@H](CCCNC(=N)N)C(=O)N1CCC[C@H]1C(=O)N[C@@H](CCCCN)C(=O)NCC(=O)NCC(=O)N[C@@H](C)C(=O)N[C@@H](Cc1c[nH]c2ccccc12)C(=O)N[C@@H](CC(C)C)C(=O)N[C@@H](C)C(=O)N[C@@H](Cc1ccc(O)cc1)C(=O)N1CCC[C@H]1C(=O)N[C@@H](CC(=O)O)C(=O)N[C@@H](CO)C(=O)N[C@H](C(=O)N1CCC[C@H]1C(=O)N[C@@H](Cc1ccc(O)cc1)C(=O)N[C@@H](CCCNC(=N)N)C(=O)N1CCC[C@H]1C(=O)N[C@@H](CCCCN)C(N)=O)C(C)C)C(C)C

Key:
[1] = biological target: T1, EphA2 endogenously expressed on PC3 prostate cancer cells (UniProt P29317 24-976, limits assumed); assay: cell-based or functional assay
[2] = biological target: T1, EphA2 endogenously expressed on PC3 …; assay: cell-based or functional assay; remark: listed apart in the source
[3] = biological target: T2, EphA2 extracellular domain fused to the Fc portion of an antibody (EphA2-Fc); assay: ELISA, inhibition of ephrinA5-AP binding to immobilized EphA2-Fc
T2 construct: extracellular domain; Immobilized on the ELISA wells; also called immobilized EphA2

[4] = biological target: T3, EphA2 ligand binding domain (EphA2 LBD), residues 28-200 (UniProt P29317 28-200); assay: ITC, soluble EphA2 LBD and peptide
T3 construct: range 28-200; Expressed in E. coli; also called soluble EphA2 LBD; soluble monomeric EphA2 LBD

[5] = biological target: T2, EphA2 extracellular domain fused to the …; assay: ELISA, inhibition of ephrinA5-AP binding to immobilized EphA2-Fc; remark: listed apart in the source
[6] = biological target: T3, EphA2 ligand binding domain (EphA2 …); assay: ITC, soluble EphA2 LBD and peptide; remark: listed apart in the source
Method: (§1) For ITC, all peptides are dissolved in DMSO and both the EphA2 LBD and the peptides are diluted to obtain a final buffer containing 9.5 mM HEPES, pH 7.9, 95 mM NaCl, and 5% DMSO. The experiments are carried out at 296 K (23° C.) using an ITC200 calorimeter (Microcal). Two-microliter aliquots of a peptide solution are injected into the cell containing 205 μL EphA2 LBD. 200-400 μM peptides are titrated into 20-40 μM EphA2 LBD. Experimental data are analyzed using the Origin software package (Microcal). The integrated values for the reaction heats are normalized to the amount of injected peptide after blank subtraction.

[7] = biological target: T3, EphA2 ligand binding domain (EphA2 …); assay: ITC, EphA2 LBD (200-250 µM) titrated into 10-12.5 µM peptide; single titration shown
[8] = biological target: T3, EphA2 ligand binding domain (EphA2 …); assay: ITC, soluble EphA2 LBD and peptide; remark: listed apart in the source
Method: as §1

[9] = biological target: T2, EphA2 extracellular domain fused to the …; assay: ELISA, inhibition of ephrinA5-AP binding to immobilized EphA2-Fc; representative experiment, triplicates
[10] = biological target: T1, EphA2 endogenously expressed on PC3 …; assay: cell-based or functional assay; remark: listed apart in the source
[11] = biological target: T3, EphA2 ligand binding domain (EphA2 …); assay: ITC, EphA2 LBD (200-250 µM) titrated into 10-12.5 µM peptide; single titration shown; remark: listed apart in the source
[12] = biological target: T2, EphA2 extracellular domain fused to the …; assay: ELISA, inhibition of ephrinA5-AP binding to immobilized EphA2-Fc; representative experiment, triplicates; remark: listed apart in the source
Method: FIG. 1A-1C illustrates an example of Potency and selectivity of EphA2-targeting dimeric peptides. […] The graphs show averages ±SD from triplicate measurements from a representative experiment. […] The 10 nM peptide concentration is outlined in red. […] Values are normalized to ephrin binding without peptide. The graphs show averages and SDs from triplicate measurements (with each measurement shown as a dot).

[13] = biological target: T3, EphA2 ligand binding domain (EphA2 …); assay: ITC, EphA2 LBD (200-250 µM) titrated into 10-12.5 µM peptide; single titration shown; remark: listed apart in the source
[14] = biological target: the molecule itself; assay: quantitative FRET between mTURQ- and EYFP-tagged EphA2 L223R/L254R/V255R in HEK293 cells, no ligand; self-association, monomer-dimer fit

T3 sequence (P29317 other isoform, or with tags, fused parts or gaps limits assumed, form in doubt): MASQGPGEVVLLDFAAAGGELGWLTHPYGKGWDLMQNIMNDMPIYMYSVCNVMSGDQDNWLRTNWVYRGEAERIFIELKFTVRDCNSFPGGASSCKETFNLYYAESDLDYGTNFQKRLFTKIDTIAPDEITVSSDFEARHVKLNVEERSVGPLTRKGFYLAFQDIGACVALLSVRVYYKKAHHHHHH
T2 sequence (P29317 whole entry, the tested form may be a part): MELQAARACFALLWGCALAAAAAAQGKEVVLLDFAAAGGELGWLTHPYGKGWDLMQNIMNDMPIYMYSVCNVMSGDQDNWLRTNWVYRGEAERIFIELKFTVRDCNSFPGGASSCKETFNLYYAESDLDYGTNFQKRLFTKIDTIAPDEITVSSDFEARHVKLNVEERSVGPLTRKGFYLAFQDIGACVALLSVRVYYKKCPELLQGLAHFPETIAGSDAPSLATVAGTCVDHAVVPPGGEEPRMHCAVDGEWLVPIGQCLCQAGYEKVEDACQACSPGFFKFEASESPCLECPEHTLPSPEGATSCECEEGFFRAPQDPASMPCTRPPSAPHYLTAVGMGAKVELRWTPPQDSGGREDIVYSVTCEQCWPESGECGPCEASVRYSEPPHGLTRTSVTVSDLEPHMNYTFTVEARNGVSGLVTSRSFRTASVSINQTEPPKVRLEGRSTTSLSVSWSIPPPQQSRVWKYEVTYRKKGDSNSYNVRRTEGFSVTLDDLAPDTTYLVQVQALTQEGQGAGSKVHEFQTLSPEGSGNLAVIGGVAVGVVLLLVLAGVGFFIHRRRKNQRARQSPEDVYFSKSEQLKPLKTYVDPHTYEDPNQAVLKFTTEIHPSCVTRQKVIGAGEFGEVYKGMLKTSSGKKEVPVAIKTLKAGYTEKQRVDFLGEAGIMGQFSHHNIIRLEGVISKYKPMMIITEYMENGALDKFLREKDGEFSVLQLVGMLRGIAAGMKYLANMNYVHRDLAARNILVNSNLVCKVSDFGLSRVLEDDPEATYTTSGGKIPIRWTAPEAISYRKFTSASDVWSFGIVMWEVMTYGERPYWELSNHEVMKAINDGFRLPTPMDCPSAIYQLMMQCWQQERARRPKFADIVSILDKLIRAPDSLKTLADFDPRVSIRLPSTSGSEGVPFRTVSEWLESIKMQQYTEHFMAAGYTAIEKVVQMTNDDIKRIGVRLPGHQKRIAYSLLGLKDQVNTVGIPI

| Binder | Blig (bias factor) [1] | EC50 PY588 [1] | Emax PY588 [1] | IC50 PAKT [1] | EC50 pAKT inhib [2] | EC50 pY588 [2] | Etop pAKT inhib [2] | Etop pY588 [2] | βlig (bias factor) [2] | IC50 [3] | Kd [4] | N (binding stoichiometry) [4] | IC50 [5] | Kd [6] | N (binding stoichiometry) [6] | -TΔS [8] | Kd [8] | N (binding stoichiometry) [8] | ΔG [8] | ΔH [8] | further results |
| --- | --- | --- | --- | --- | --- | --- | --- | --- | --- | --- | --- | --- | --- | --- | --- | --- | --- | --- | --- | --- | --- |
| B1 | 0.93 | 0.22 nM | 0.71 normalized to ephrinA1-Fc | 0.024 nM | 80 pM | 0.64 nM | 0.87 | 0.98 normalized to ephrinA1-Fc | 0.5 |  |  |  |  |  |  |  |  |  |  |  |  |
| B2 |  |  |  |  | 39 nM |  | 0.9 | 0.49 normalized to ephrinA1-Fc | 0.506 | 71 nM | 2900 nM | 1.7 | 71 nM | 2900 nM | 1.7 | 16.3 kcal/mol | 2900 nM | 1.7 | -7.55 kcal/mol | -23.9 kcal/mol | Kd [7]: 3760 nM; IC50 [9]: 67 nM; agonistic potency (pY588), fold lower than the other dimers with similar configuration [10]: 10 to 60 fold |
| B3 |  |  |  |  | 0.53 nM |  | 0.9 | 0.94 normalized to ephrinA1-Fc | 0.47 | 7.9 nM | 104 nM | 2 | 7.9 nM | 104 nM | 2 | 23.6 kcal/mol | 104 nM | 2 | -9.47 kcal/mol | -33.1 kcal/mol | Kd [11]: 103 nM; IC50 [9]: 6.7 nM; agonistic potency (pY588), fold lower than the other dimers with similar configuration [10]: 10 to 60 fold |
| B4 |  |  |  |  |  |  | 1.06 | 0.48 normalized to ephrinA1-Fc | 0.64 |  |  |  |  |  | 0.8 | 25.5 kcal/mol |  | 0.8 |  | -35.1 kcal/mol | IC50 [12]: 22 nM |
| B5 | 0.79 | 2.4 nM | 0.37 normalized to ephrinA1-Fc | 0.63 nM | 0.42 nM | 2.6 nM | 1 | 0.46 normalized to ephrinA1-Fc | 0.79 |  |  |  |  |  |  |  |  |  |  |  |  |
| B6 |  |  |  |  |  |  |  |  |  | 850 nM |  |  |  |  |  |  |  |  |  |  |  |
| B7 | 1.28 | 2.6 nM | 0.39 normalized to ephrinA1-Fc | 0.22 nM | 0.82 nM | 5.6 nM | 0.86 | 0.5 normalized to ephrinA1-Fc | 0.73 | 0.5 nM | 380 nM | 2 | 0.5 nM | 380 nM | 2 | 19.5 kcal/mol | 380 nM | 2 | -8.71 kcal/mol | -28.2 kcal/mol | IC50 [9]: 0.47 nM; Kd [13]: 329 nM |
| B8 |  |  |  |  |  |  |  |  |  |  |  |  |  |  |  |  |  |  |  |  | binding result [14]: binds |
| B9 | 0.36 | 0.12 nM | 0.8 normalized to ephrinA1-Fc | 0.043 nM | 80 pM | 0.36 nM | 0.97 | 0.98 normalized to ephrinA1-Fc | 0.51 |  |  |  |  |  |  |  |  |  |  |  |  |
| B10 | 0.62 | 0.49 nM | 0.61 normalized to ephrinA1-Fc | 0.12 nM | 90 pM | 0.73 nM | 0.87 | 0.76 normalized to ephrinA1-Fc | 0.62 |  |  |  |  |  |  |  |  |  |  |  |  |

— patent US20230391826A1 (SANFORD BURNHAM PREBYS MEDICAL DISCOVERY INSTITUTE, published 2023)
